According to doi:10.1101/2021.02.17.431743 (bioRxiv, 2021):
Values joined by “and” are separate entries in the source; they are usually repeats but may differ in a detail not shown here. Identical values can stand only once.

Target: the molecule itself
Assay: gradient fixation ultracentrifugation

B1: HeV-RBP full ectodomain (head domain with intact stalk domain), dimeric fraction after gradient fixation (domain or fragment)
chain: QNYTRTTDNQALIKESLQSVQQQIKALTDKIGTEIGPKVSLIDTSSTITIPANIGLLGSKISQSTSSINENVNDKCKFTLPPLKIHECNISCPNPLPFREYRPISQGVSDLVGLPNQICLQKTTSTILKPRLISYTLPINTREGVCITDPLLAVDNGFFAYSHLEKIGSCTRGIAKQRIIGVGEVLDRGDKVPSMFMTNVWTPPNPSTIHHCSSTYHEDFYYTLCAVSHVGDPILNSTSWTESLSLIRLAVRPKSDSGDYNQKYIAITKVERGKYDKVMPYGPSGIKQGDTLYFPAVGFLPRTEFQYNDSNCPIIHCKYSKAENCRLSMGVNSKSHYILRSGLLKYNLSLGGDIILQFIEIADNRLTIGSPSKIYNSLGQPVFYQASYSWDTMIKLGDVDTVDPLRVQWRNNSVISRPGQSQCPRFNVCPEVCWEGTYNDAFLIDRLNWVSAGVYLNSNQTAENPVFAVFKDNEILYQVPLAEDDTNAQKTITDCFLLENVIWCISLVEIYDTGDSVIRPKLFAVKIPAQCSES
**Q.** How did the “stoichiometry N” value turn out when B1 was run?
**A.** The value was 2 and 4.
